# Measurements from publication PMC11087589, “Molecular basis of bacterial DSR2 anti-phage defense and viral immune evasion” (Nature Communications, 2024).
# B1: Phage tail tube protein from Siphoviridae SPR, His6-SUMO-tagged (natural protein, Siphoviridae SPR (phage))
# chain: MKTVIQDTADVYFKRKSDGKLVFTAEAQTASFSQAISEEKLRGGIGNKPLYILKSEKEINLTVKNAFFDLEWLAMTQGETIQEETKVKVFDREHGLIVDDTNKVTLKGKPVSDVTFYNKKGLTYKIAVSTDGTYTIPTAFAAAKDKLTAVYQIEKVGRRLAIKASKFSERYEVEYRTIAYNPDTEEVYSDIYIQFPNVSPSGEFEMSLENGNALAPEIKFEALADTDTDEMAVVIEASRDENTAAPVEDTTGSTQSSDLGGTTE
# notes: Purified alone it is a hexamer and filaments of hexamers; in the complex with DSR2^H171A it is a monomer at each corner (4:4); The methods say that His6-SUMO-Tube was purified directly, without removal of the tag; also called His6-SUMO-Tube; HisSUMO-Tube; source: E. coli BL21(DE3); not shown: His6, N-terminal, kept; SUMO, N-terminal, kept
# Key:
# [1] = target: Bacillus subtilis DSR2, wild type, co-expressed with His6-SUMO-DSAD1 (Bacillus subtilis); experiment: cryo-EM structure; DSR2-DSAD1 complex co-expressed and purified, 1.2 mg/mL; 3.49 Å after focus refinement
# [2] = target: DSAD1 (DSR anti-defense 1) from Siphoviridae SPbeta, His6-SUMO-tagged, co-expressed with DSR2 (Siphoviridae SPbeta (phage)) (UniProt Q796A8); experiment: as above
# [3] = target: the molecule itself; experiment: cryo-EM structure; apo DSR2 tetramer, 1.5 mg/mL, 4.15 Å after focus refinement
# [4] = target: the molecule itself; experiment: SEC; oligomeric state of purified DSR2, its mutants and the DSR2^H171A-Tube complex; Superdex 200 Increase 10/300 GL, 25 mM Tris-HCl pH 7.5, 150 mM NaCl
# [5] = target: B1; experiment: cryo-EM structure; DSR2^H171A-Tube complex co-expressed and purified, 2 mg/mL, 1 mM NAD+ added; 3.58 Å, local refinement 3.08 Å; details: both partners purified
# [6] = target: the molecule itself; experiment: SEC + other: cryo-EM 2D class averages; purified His6-SUMO-Tube alone
molecule,measurement,setting,value
"Bacillus subtilis DSR2, wild type, co-expressed with His6-SUMO-DSAD1 (enzyme)",stoichiometry N,[1],4
same,stoichiometry N (DSAD1:DSR2 (2:4)),[2],0.5
"Bacillus subtilis DSR2 (defense-associated sirtuin 2), wild type, His-tagged, purified alone (enzyme, UniProt P0DXN8 1-1005, looked up, Homo-tetramer by cryo-EM and SEC; Cloned into pCDFDuet (BamHI/XhoI); the methods call it His-tagged; also called apo DSR2; apo DSR2 tetramer; source: E. coli BL21(DE3), purified (Ni-NTA, gel filtration on Superdex 200 Increase)) MVKVDLESKRYGEKLKEVFLMLDNNVVECIKEITESSRNGKLVFFVGAGVSTLSDYPQWWRLVDKYHEELYGSPKKGNYSSDEYLRIPQIFYNVKGEMAFDGILKDFFQVDKPTNPIHDKILAMNPAHVITTNYDNLIDTACWKRGKYFSVISAEEDVANATSSRYLLKVHGDFRKGFKGENVVLKEDDYLNYDQNYPLISNLMKTIIATHTIVFIGYGLGDYNINMLLNWVRKLQKDSFHKPFFIRTDPSPIENETLIYYENKGLRIIDAASLIDSNEYDYLERYSAVMDLLIESQENKFITKDDEVIDYIYGKISPLFALQYIRKIDLKHVFEYDYHFEVNGTVVRHKNKGFGYMERFFELKESCDERSKLSKKQYERFNALFNFFEKNGVICMAKDAGTLNTSIEINSLAYHGKYDVMKKFIEEQSVSIEDDYKKAFFLACLGRWEESYDLYSNIILNSIDESNGCVYYLSQINRYRIYQSITQAVTQFNGLGLLTFGRHYKPFTDEFLARIEREMTNFNIDDLFNGMPFEFQKKYKILEFLSDNQFLYDDTVKLFELTNKVRSEMSEGSYSFGMSSDIVVLLRLYDNLRFLYENCLWSVSFHEFHQYIRNSMSLLIEKAEYERTRDIDELGFSFFGKKSGFFMEYYDFVNISRHFKIDDIKNLERSCSIDKIRFGEQEKIEEYLVGIAEEITKQFSANGMNVVFYTQFISEAKAALYFAKYVKLSEEGLGKIVKALLFYFPERDLDIGKRYVWLERLTKCNELPKSIISIIDDFLVLQAEKHIDQNYSEVSSNGLYSRDYGALIKHFEKNFISKRLSEITLCLTQDKQKQIDFLFKLLPLLSTNAKSHLLSFKSVENINDLMNGIRIGLIDEFTPEHEELIIEYLETRKVNYIVEKEKGIQTFSSNDYMSTFGIWYFLEEINNSKMEEFIGMDDQYDFFVDPENFDYKKFIPSWLKNYNDKLLGKIAGNKHMKHHVIEVLKERVKNSNDKRYLEILMNYFI",stoichiometry N,[3],4
"DSR2^I259S/Y260G (enzyme, Bacillus subtilis, UniProt P0DXN8 1-1005, looked up, Dimer by SEC; also called I259S/Y260G mutant; mutant with disruption at the tetrameric interface; source: E. coli BL21(DE3), purified by a protocol similar to that of the wild type) MVKVDLESKRYGEKLKEVFLMLDNNVVECIKEITESSRNGKLVFFVGAGVSTLSDYPQWWRLVDKYHEELYGSPKKGNYSSDEYLRIPQIFYNVKGEMAFDGILKDFFQVDKPTNPIHDKILAMNPAHVITTNYDNLIDTACWKRGKYFSVISAEEDVANATSSRYLLKVHGDFRKGFKGENVVLKEDDYLNYDQNYPLISNLMKTIIATHTIVFIGYGLGDYNINMLLNWVRKLQKDSFHKPFFIRTDPSPIENETLSGYENKGLRIIDAASLIDSNEYDYLERYSAVMDLLIESQENKFITKDDEVIDYIYGKISPLFALQYIRKIDLKHVFEYDYHFEVNGTVVRHKNKGFGYMERFFELKESCDERSKLSKKQYERFNALFNFFEKNGVICMAKDAGTLNTSIEINSLAYHGKYDVMKKFIEEQSVSIEDDYKKAFFLACLGRWEESYDLYSNIILNSIDESNGCVYYLSQINRYRIYQSITQAVTQFNGLGLLTFGRHYKPFTDEFLARIEREMTNFNIDDLFNGMPFEFQKKYKILEFLSDNQFLYDDTVKLFELTNKVRSEMSEGSYSFGMSSDIVVLLRLYDNLRFLYENCLWSVSFHEFHQYIRNSMSLLIEKAEYERTRDIDELGFSFFGKKSGFFMEYYDFVNISRHFKIDDIKNLERSCSIDKIRFGEQEKIEEYLVGIAEEITKQFSANGMNVVFYTQFISEAKAALYFAKYVKLSEEGLGKIVKALLFYFPERDLDIGKRYVWLERLTKCNELPKSIISIIDDFLVLQAEKHIDQNYSEVSSNGLYSRDYGALIKHFEKNFISKRLSEITLCLTQDKQKQIDFLFKLLPLLSTNAKSHLLSFKSVENINDLMNGIRIGLIDEFTPEHEELIIEYLETRKVNYIVEKEKGIQTFSSNDYMSTFGIWYFLEEINNSKMEEFIGMDDQYDFFVDPENFDYKKFIPSWLKNYNDKLLGKIAGNKHMKHHVIEVLKERVKNSNDKRYLEILMNYFI",stoichiometry N,[4],2
"DSR2^H171A, catalytic mutant, co-expressed with His6-SUMO-Tube (enzyme, Bacillus subtilis, UniProt P0DXN8 1-1005, looked up, source: E. coli BL21(DE3), co-expressed with His6-SUMO-Tube; in lysate (pull-down) and purified as the complex (Ni-NTA, Hitrap Q, gel filtration)) MVKVDLESKRYGEKLKEVFLMLDNNVVECIKEITESSRNGKLVFFVGAGVSTLSDYPQWWRLVDKYHEELYGSPKKGNYSSDEYLRIPQIFYNVKGEMAFDGILKDFFQVDKPTNPIHDKILAMNPAHVITTNYDNLIDTACWKRGKYFSVISAEEDVANATSSRYLLKVAGDFRKGFKGENVVLKEDDYLNYDQNYPLISNLMKTIIATHTIVFIGYGLGDYNINMLLNWVRKLQKDSFHKPFFIRTDPSPIENETLIYYENKGLRIIDAASLIDSNEYDYLERYSAVMDLLIESQENKFITKDDEVIDYIYGKISPLFALQYIRKIDLKHVFEYDYHFEVNGTVVRHKNKGFGYMERFFELKESCDERSKLSKKQYERFNALFNFFEKNGVICMAKDAGTLNTSIEINSLAYHGKYDVMKKFIEEQSVSIEDDYKKAFFLACLGRWEESYDLYSNIILNSIDESNGCVYYLSQINRYRIYQSITQAVTQFNGLGLLTFGRHYKPFTDEFLARIEREMTNFNIDDLFNGMPFEFQKKYKILEFLSDNQFLYDDTVKLFELTNKVRSEMSEGSYSFGMSSDIVVLLRLYDNLRFLYENCLWSVSFHEFHQYIRNSMSLLIEKAEYERTRDIDELGFSFFGKKSGFFMEYYDFVNISRHFKIDDIKNLERSCSIDKIRFGEQEKIEEYLVGIAEEITKQFSANGMNVVFYTQFISEAKAALYFAKYVKLSEEGLGKIVKALLFYFPERDLDIGKRYVWLERLTKCNELPKSIISIIDDFLVLQAEKHIDQNYSEVSSNGLYSRDYGALIKHFEKNFISKRLSEITLCLTQDKQKQIDFLFKLLPLLSTNAKSHLLSFKSVENINDLMNGIRIGLIDEFTPEHEELIIEYLETRKVNYIVEKEKGIQTFSSNDYMSTFGIWYFLEEINNSKMEEFIGMDDQYDFFVDPENFDYKKFIPSWLKNYNDKLLGKIAGNKHMKHHVIEVLKERVKNSNDKRYLEILMNYFI",stoichiometry N,[5],1 DSR2:Tube (4:4)
same,stoichiometry N,[4],4
B1,stoichiometry N,[6],6
